From article PMC6662825

Molecular target: Trx-NVL^167–216-(GS)3-eYFP (human) (UniProt O15381)
Test: MST; 50 nM Trx-NVL^167–216-(GS)3-eYFP with a 1:1 dilution series of unlabeled MTR4 KOW; 50 mM Hepes/NaOH pH 7.5, 150 mM NaCl, 5% glycerol, 0.5 mM TCEP; MST power 20%, LED power 20%; triplicates

Sequence of Trx-NVL^167–216-(GS)3-eYFP (human) (O15381 167-216): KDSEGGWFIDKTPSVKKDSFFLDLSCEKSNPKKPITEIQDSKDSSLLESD

B1: MTR4-KOW (domain or fragment)
chain: HKPKYCLPFLQPGRLVKVKNEGDDFGWGVVVNFSKKSNVKPNSGELDPLYVVEVLLRCSKESLKNSATEAAKPAKPDEKGEMQVVPVLVHLLSAISSVRLYIPKDLRPVDNRQSVLKSIQEVQKRFPDGIPLLDPIDDMGIQD
- Kd: 1 µM
